Values of other authors, collected in article PMC11381810.

Tests used:
[1] = target: syntaxin-1 SNARE motif (Rattus norvegicus) (UniProt P32851); conditions: cited from earlier work
[2] = target: syntaxin-1 dimer SNARE motif (Rattus norvegicus) (UniProt P32851); conditions: cited from earlier work

Sequence of syntaxin-1 dimer SNARE motif (P32851 191-253): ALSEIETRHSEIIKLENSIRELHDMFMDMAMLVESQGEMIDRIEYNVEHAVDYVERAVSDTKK
Sequence of syntaxin-1 SNARE motif (P32851 191-253): as above

Substance	Kd [1]	Kd [2]
syntaxin-1 SNARE motif (from UniProt P32851)	1.4 µM	
syntaxin-1 dimer SNARE motif (from UniProt P32851)		12 µM
